The values that follow come from publication PMC9949808 (eLife, 2023).

The target of test [1] is photosystem II (PSII) core, one of the two cores of the dimer (Dunaliella salina). Briefly: cryo-EM structure; native PSII purified from D. salina thylakoids (1% α-DM, sucrose gradient), in 25 mM MES pH 6.5, 1 mM CaCl2, 5 mM MgCl2, 0.1% α-DM; unstacked particles: C2S2 compact 2.43 Å, C2S2 stretched 2.62 Å, C2S 3.61 Å.
In another test the target is T1, PSII reaction centre (Dunaliella salina, UniProt A0A1C8XRK9+D0FY08).
T1 construct: gene psbA; native D1/D2 heterodimer in PSII C2S2 supercomplex purified from D. salina
The test is described as follows: cryo-EM structure. The conditions noted are these: type a inferred. The class given is binding.

The stoichiometry N is the number of molecules, sites or subunits per partner or assembly.

“photosystem II (PSII) core, one of the two cores of the dimer (complex)” had a stoichiometry N in test [1] of 2.

As for `C=Cc1c(C)c2cc3nc(c4c5[nH]c(cc6nc(cc1[nH]2)C(C)=C6CC)c(C)c5C(=O)[C@@H]4C(=O)OC)[C@@H](CCC(=O)OC/C=C(\C)CCC[C@H](C)CCC[C@H](C)CCCC(C)C)[C@@H]3C` [pheophytin], the cryo-EM structure result at PSII reaction centre is “PSII reaction centre chlorophylls (Chls), pheophytins, and quinone”.
